Assay results as given in paper PMC12412656.

B1: RIAM TBS1 (4-30C) synthetic peptide, unlabeled (peptide)
peptide: SEDIDQMFSTLLGEMDLLTQSLGVDTC

What was measured:
[1] = molecular target: RIAM TBS1 (4-30C) synthetic peptide, fluorescein-labelled; test: fluorescence polarisation; R7R8 serially diluted (maximum 160 μM) into 0.5 μM fluorescein-labelled peptide; PBS with 1 mM TCEP and 0.02% Tween-20; room temperature; triplicate; one-site total binding model
[2] = molecular target: DLC1 TBS (465-489C) synthetic peptide, fluorescein-labelled; test: as above
[3] = molecular target: talin 1 R7R8 domain protein (mouse) (mouse); test: fluorescence polarisation; competition: R7R8 (30 μM) pre-incubated with DLC1 TBS-F (1 μM) 20 min at room temperature, diluted 1:2 into unlabeled peptide at twofold increasing concentrations up to 160 μM; one-site Ki fit

| Molecule | Kd [1] [µM] | Kd [2] [µM] | Ki [3] [µM] |
| --- | --- | --- | --- |
| talin 1 R7R8 domain protein (mouse) (domain or fragment) | 9.21 | 4.92 |  |
| B1 |  |  | 90 |
